*1 amine or outer side, *2 acyl side, *3 side chain or, on linkers, in order; H or OH if unused. Bridges are numbered along the chain shown (N, C = ends). [ ]: non-standard residue; d: D form. The star is where a group is joined. C20 diacid = O=C(O)CCCCCCCCCCCCCCCCCCC(=O)*; γGlu = O=C(O)[C@H](CCC(=O)[*:2])N[*:1]; Hyp = O=C(O)[C@@H]1C[C@@H](O)CN1; NMeI = CC[C@H](C)[C@H](NC)C(=O)O; Aad = N[C@@H](CCCC(=O)O)C(=O)O; Orn = NCCC[C@H](N)C(=O)O; Sar = CNCC(=O)O

The assay concerns the target T1, human amylin receptor 3 (hAMYR3), hCTR2 co-expressed with human receptor activity modifying protein 3 (hRAMP3) (human, UniProt P30988 25-474; O60896 24-148).
T1 sequence (looked up) 1: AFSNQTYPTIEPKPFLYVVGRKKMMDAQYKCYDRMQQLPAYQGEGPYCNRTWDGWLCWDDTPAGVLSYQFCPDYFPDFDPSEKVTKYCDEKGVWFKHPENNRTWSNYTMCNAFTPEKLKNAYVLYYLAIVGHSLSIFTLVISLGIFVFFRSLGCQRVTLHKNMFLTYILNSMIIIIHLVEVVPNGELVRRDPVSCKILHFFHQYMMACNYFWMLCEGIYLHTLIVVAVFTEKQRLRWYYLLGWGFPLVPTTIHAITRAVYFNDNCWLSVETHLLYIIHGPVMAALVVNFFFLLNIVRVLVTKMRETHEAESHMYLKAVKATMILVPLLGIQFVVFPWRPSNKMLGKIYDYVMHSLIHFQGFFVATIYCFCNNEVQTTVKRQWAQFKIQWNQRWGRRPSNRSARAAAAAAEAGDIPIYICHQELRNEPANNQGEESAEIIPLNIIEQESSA
T1 sequence (looked up) 2: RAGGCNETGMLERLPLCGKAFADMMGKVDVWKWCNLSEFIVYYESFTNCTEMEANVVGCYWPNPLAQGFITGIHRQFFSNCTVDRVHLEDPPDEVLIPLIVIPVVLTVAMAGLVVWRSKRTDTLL
As to the kind of experiment: cell-based or functional assay.

B1: [19CD]-isoGlu-R-C( )-GTAT-C( )-ATERLADFLQRSSF-Gly(Me)-A-Ile(Me)-LSSTEVGSNT-Hyp-NH2 (Compd. 54) (peptide)
peptide: {C20 diacid}-[γGlu]RCGTATCATERLADFLQRSSF[Sar]A[NMeI]LSSTEVGSNT[Hyp]-NH2
modifications: disulfide 3-8
SMILES: CC[C@H](C)[C@@H](C(=O)N[C@@H](CC(C)C)C(=O)N[C@@H](CO)C(=O)N[C@@H](CO)C(=O)N[C@H](C(=O)N[C@@H](CCC(=O)O)C(=O)N[C@H](C(=O)NCC(=O)N[C@@H](CO)C(=O)N[C@@H](CC(N)=O)C(=O)N[C@H](C(=O)N1C[C@H](O)C[C@H]1C(N)=O)[C@@H](C)O)C(C)C)[C@@H](C)O)N(C)C(=O)[C@H](C)NC(=O)CN(C)C(=O)[C@H](Cc1ccccc1)NC(=O)[C@H](CO)NC(=O)[C@H](CO)NC(=O)[C@H](CCCNC(=N)N)NC(=O)[C@H](CCC(N)=O)NC(=O)[C@H](CC(C)C)NC(=O)[C@H](Cc1ccccc1)NC(=O)[C@H](CC(=O)O)NC(=O)[C@H](C)NC(=O)[C@H](CC(C)C)NC(=O)[C@H](CCCNC(=N)N)NC(=O)[C@H](CCC(=O)O)NC(=O)[C@@H](NC(=O)[C@H](C)NC(=O)[C@@H]1CSSC[C@H](NC(=O)[C@H](CCCNC(=N)N)NC(=O)CC[C@H](NC(=O)CCCCCCCCCCCCCCCCCCC(=O)O)C(=O)O)C(=O)NCC(=O)N[C@@H]([C@@H](C)O)C(=O)N[C@@H](C)C(=O)N[C@@H]([C@@H](C)O)C(=O)N1)[C@@H](C)O
For B1, the “hAMYR3 EC50 (nM); cAMP induction” value amounted to 0.14 nM. With {C20 diacid-γGlu}-RCNTATCATERLAHFLQRSSF[Sar]A[NMeI]LSSTEVGSNT[Hyp]-NH2 (disulfide 2-7) [[19CD]-isoGlu-R-C( )-NTAT-C( )-ATERLAHFLQRSSF-Gly(Me)-A-Ile(Me)-LSSTEVGSNT-Hyp-NH2 (Compd. 56)], the “hAMYR3 EC50 (nM); cAMP induction” value was found to be 0.08 nM.

B2: [19CD]-isoGlu-R-C( )-GTAT-C( )-ATERLAHFLQRSSF-Gly(Me)-A-Ile(Me)-LSSTEVGS-Orn-T-Hyp-NH2 (Compd. 51) (peptide)
peptide: {C20 diacid}-[γGlu]RCGTATCATERLAHFLQRSSF[Sar]A[NMeI]LSSTEVGS[Orn]T[Hyp]-NH2
modifications: disulfide 3-8
SMILES: CC[C@H](C)[C@@H](C(=O)N[C@@H](CC(C)C)C(=O)N[C@@H](CO)C(=O)N[C@@H](CO)C(=O)N[C@H](C(=O)N[C@@H](CCC(=O)O)C(=O)N[C@H](C(=O)NCC(=O)N[C@@H](CO)C(=O)N[C@@H](CCCN)C(=O)N[C@H](C(=O)N1C[C@H](O)C[C@H]1C(N)=O)[C@@H](C)O)C(C)C)[C@@H](C)O)N(C)C(=O)[C@H](C)NC(=O)CN(C)C(=O)[C@H](Cc1ccccc1)NC(=O)[C@H](CO)NC(=O)[C@H](CO)NC(=O)[C@H](CCCNC(=N)N)NC(=O)[C@H](CCC(N)=O)NC(=O)[C@H](CC(C)C)NC(=O)[C@H](Cc1ccccc1)NC(=O)[C@H](Cc1c[nH]cn1)NC(=O)[C@H](C)NC(=O)[C@H](CC(C)C)NC(=O)[C@H](CCCNC(=N)N)NC(=O)[C@H](CCC(=O)O)NC(=O)[C@@H](NC(=O)[C@H](C)NC(=O)[C@@H]1CSSC[C@H](NC(=O)[C@H](CCCNC(=N)N)NC(=O)CC[C@H](NC(=O)CCCCCCCCCCCCCCCCCCC(=O)O)C(=O)O)C(=O)NCC(=O)N[C@@H]([C@@H](C)O)C(=O)N[C@@H](C)C(=O)N[C@@H]([C@@H](C)O)C(=O)N1)[C@@H](C)O
Regarding B2, the “hAMYR3 EC50 (nM); cAMP induction” value worked out at 0.11 nM.

B3: [19CD]-isoGlu-R-C( )-GTAT-C( )-ATERLAHFLQRSSF-Gly(Me)-A-Ile(Me)-LSSTEVGS-Aad-T-Hyp-NH2 (Compd. 53) (peptide)
peptide: {C20 diacid}-[γGlu]RCGTATCATERLAHFLQRSSF[Sar]A[NMeI]LSSTEVGS[Aad]T[Hyp]-NH2
modifications: disulfide 3-8
SMILES: CC[C@H](C)[C@@H](C(=O)N[C@@H](CC(C)C)C(=O)N[C@@H](CO)C(=O)N[C@@H](CO)C(=O)N[C@H](C(=O)N[C@@H](CCC(=O)O)C(=O)N[C@H](C(=O)NCC(=O)N[C@@H](CO)C(=O)N[C@@H](CCCC(=O)O)C(=O)N[C@H](C(=O)N1C[C@H](O)C[C@H]1C(N)=O)[C@@H](C)O)C(C)C)[C@@H](C)O)N(C)C(=O)[C@H](C)NC(=O)CN(C)C(=O)[C@H](Cc1ccccc1)NC(=O)[C@H](CO)NC(=O)[C@H](CO)NC(=O)[C@H](CCCNC(=N)N)NC(=O)[C@H](CCC(N)=O)NC(=O)[C@H](CC(C)C)NC(=O)[C@H](Cc1ccccc1)NC(=O)[C@H](Cc1c[nH]cn1)NC(=O)[C@H](C)NC(=O)[C@H](CC(C)C)NC(=O)[C@H](CCCNC(=N)N)NC(=O)[C@H](CCC(=O)O)NC(=O)[C@@H](NC(=O)[C@H](C)NC(=O)[C@@H]1CSSC[C@H](NC(=O)[C@H](CCCNC(=N)N)NC(=O)CC[C@H](NC(=O)CCCCCCCCCCCCCCCCCCC(=O)O)C(=O)O)C(=O)NCC(=O)N[C@@H]([C@@H](C)O)C(=O)N[C@@H](C)C(=O)N[C@@H]([C@@H](C)O)C(=O)N1)[C@@H](C)O
B3: the “hAMYR3 EC50 (nM); cAMP induction” value amounted to 0.13 nM.

B4: [19CD]-isoGlu-R-C( )-GTAT-C( )-ATERLAHFLQRSSF-Gly(Me)-A-Ile(Me)-LSSTEVGSGT-Hyp-NH2 (Compd. 52) (peptide)
peptide: {C20 diacid}-[γGlu]RCGTATCATERLAHFLQRSSF[Sar]A[NMeI]LSSTEVGSGT[Hyp]-NH2
modifications: disulfide 3-8
SMILES: CC[C@H](C)[C@@H](C(=O)N[C@@H](CC(C)C)C(=O)N[C@@H](CO)C(=O)N[C@@H](CO)C(=O)N[C@H](C(=O)N[C@@H](CCC(=O)O)C(=O)N[C@H](C(=O)NCC(=O)N[C@@H](CO)C(=O)NCC(=O)N[C@H](C(=O)N1C[C@H](O)C[C@H]1C(N)=O)[C@@H](C)O)C(C)C)[C@@H](C)O)N(C)C(=O)[C@H](C)NC(=O)CN(C)C(=O)[C@H](Cc1ccccc1)NC(=O)[C@H](CO)NC(=O)[C@H](CO)NC(=O)[C@H](CCCNC(=N)N)NC(=O)[C@H](CCC(N)=O)NC(=O)[C@H](CC(C)C)NC(=O)[C@H](Cc1ccccc1)NC(=O)[C@H](Cc1c[nH]cn1)NC(=O)[C@H](C)NC(=O)[C@H](CC(C)C)NC(=O)[C@H](CCCNC(=N)N)NC(=O)[C@H](CCC(=O)O)NC(=O)[C@@H](NC(=O)[C@H](C)NC(=O)[C@@H]1CSSC[C@H](NC(=O)[C@H](CCCNC(=N)N)NC(=O)CC[C@H](NC(=O)CCCCCCCCCCCCCCCCCCC(=O)O)C(=O)O)C(=O)NCC(=O)N[C@@H]([C@@H](C)O)C(=O)N[C@@H](C)C(=O)N[C@@H]([C@@H](C)O)C(=O)N1)[C@@H](C)O
Turning to B4, the “hAMYR3 EC50 (nM); cAMP induction” value was found to be 0.09 nM.

With {C20 diacid}-[γGlu]RCNTATCATQRLAHFLQRSSF[Sar]A[NMeI]LSSTEVGSNT[Hyp]-NH2 (disulfide 3-8) [[19CD]-isoGlu-R-C( )-NTAT-C( )-ATQRLAHFLQRSSF-Gly(Me)-A-Ile(Me)-LSSTEVGSNT-Hyp-NH2 (Compd. 58)], the “hAMYR3 EC50 (nM); cAMP induction” value turned out to be 0.1 nM.

B5: [19CD]-isoGlu-R-C( )-NTAT-C( )-ATQRLAHFL-Aad-RSSF-Gly(Me)-A-Ile(Me)-LSSTEVGSNT-Hyp-NH2 (Compd. 50) (peptide)
peptide: {C20 diacid-γGlu}-RCNTATCATQRLAHFL[Aad]RSSF[Sar]A[NMeI]LSSTEVGSNT[Hyp]-NH2
modifications: disulfide 2-7
SMILES: CC[C@H](C)[C@@H](C(=O)N[C@@H](CC(C)C)C(=O)N[C@@H](CO)C(=O)N[C@@H](CO)C(=O)N[C@H](C(=O)N[C@@H](CCC(=O)O)C(=O)N[C@H](C(=O)NCC(=O)N[C@@H](CO)C(=O)N[C@@H](CC(N)=O)C(=O)N[C@H](C(=O)N1C[C@H](O)C[C@H]1C(N)=O)[C@@H](C)O)C(C)C)[C@@H](C)O)N(C)C(=O)[C@H](C)NC(=O)CN(C)C(=O)[C@H](Cc1ccccc1)NC(=O)[C@H](CO)NC(=O)[C@H](CO)NC(=O)[C@H](CCCNC(=N)N)NC(=O)[C@H](CCCC(=O)O)NC(=O)[C@H](CC(C)C)NC(=O)[C@H](Cc1ccccc1)NC(=O)[C@H](Cc1c[nH]cn1)NC(=O)[C@H](C)NC(=O)[C@H](CC(C)C)NC(=O)[C@H](CCCNC(=N)N)NC(=O)[C@H](CCC(N)=O)NC(=O)[C@@H](NC(=O)[C@H](C)NC(=O)[C@@H]1CSSC[C@H](NC(=O)[C@H](CCCNC(=N)N)NC(=O)CC[C@H](NC(=O)CCCCCCCCCCCCCCCCCCC(=O)O)C(=O)O)C(=O)N[C@@H](CC(N)=O)C(=O)N[C@@H]([C@@H](C)O)C(=O)N[C@@H](C)C(=O)N[C@@H]([C@@H](C)O)C(=O)N1)[C@@H](C)O
On to B5, for which the “hAMYR3 EC50 (nM); cAMP induction” value turned out to be 0.19 nM.
